Results from the supplement of paper PMC9112550, “Optimization of the antimicrobial peptide Bac7 by deep mutational scanning” (BMC Biology, 2022).

Tested on: Escherichia coli TOP10
Assay: shrunken log2 fold change of peptide-encoding DNA abundance (4.5 h post-induction vs induction); higher = less antimicrobial activity (less host growth inhibition)
Conditions: time post-induction: 4.5 h; library: site-saturation at positions 5, 18, 19, 20
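Note: peptides expressed intracellularly from a pBAD plasmid library in pooled LB shake-flask culture, induced with 0.3% L-arabinose, DNA abundance read by NGS, three biological replicates, DESeq2 with apeglm shrinkage.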

RRIRQRPPRLPRPRPRPQRDPRP
shrunken log2 fold change: 0.0969

RRIRMRPPRLPRPRPRPVFIPRP
shrunken log2 fold change: -0.137

RRIRKRPPRLPRPRPRPLTYPRP
shrunken log2 fold change: 0.0522

RRIRARPPRLPRPRPRPKFFPRP
shrunken log2 fold change: 0.305

RRIRGRPPRLPRPRPRPITSPRP
shrunken log2 fold change: 0.0724

RRIRDRPPRLPRPRPRPYKHPRP
shrunken log2 fold change: -1.13

RRIRIRPPRLPRPRPRPHRTPRP
shrunken log2 fold change: -0.125

RRIRDRPPRLPRPRPRPHMQPRP
shrunken log2 fold change: -0.368

RRIRKRPPRLPRPRPRPPRFPRP
shrunken log2 fold change: 0.733

RRIRNRPPRLPRPRPRPPYQPRP
shrunken log2 fold change: -0.22

RRIRVRPPRLPRPRPRPMCDPRP
shrunken log2 fold change: -0.0462

RRIRQRPPRLPRPRPRPQWGPRP
shrunken log2 fold change: -0.161

RRIRCRPPRLPRPRPRPDTHPRP
shrunken log2 fold change: -0.716

RRIRWRPPRLPRPRPRPEKHPRP
shrunken log2 fold change: 0.39

RRIRYRPPRLPRPRPRPHYWPRP
shrunken log2 fold change: -0.582

RRIRWRPPRLPRPRPRPYQWPRP
shrunken log2 fold change: -0.0641

RRIRDRPPRLPRPRPRPEPGPRP
shrunken log2 fold change: 0.707

RRIRTRPPRLPRPRPRPEKPPRP
shrunken log2 fold change: 0.0634

RRIRKRPPRLPRPRPRPNPMPRP
shrunken log2 fold change: 0.459

RRIRPRPPRLPRPRPRPCGLPRP
shrunken log2 fold change: 0.148

RRIRCRPPRLPRPRPRPNRLPRP
shrunken log2 fold change: -0.00311

RRIRIRPPRLPRPRPRPPFNPRP
shrunken log2 fold change: -0.473

RRIRHRPPRLPRPRPRPGIRPRP
shrunken log2 fold change: -0.00441

RRIRHRPPRLPRPRPRPRWCPRP
shrunken log2 fold change: 0.0475

RRIRKRPPRLPRPRPRPDGVPRP
shrunken log2 fold change: 0.154

RRIRTRPPRLPRPRPRPVGIPRP
shrunken log2 fold change: -0.0568

RRIRLRPPRLPRPRPRPWSSPRP
shrunken log2 fold change: -0.469

RRIRMRPPRLPRPRPRPYQLPRP
shrunken log2 fold change: 0.0393

RRIRPRPPRLPRPRPRPCTPPRP
shrunken log2 fold change: -0.167

RRIRSRPPRLPRPRPRPSFWPRP
shrunken log2 fold change: 0.079

RRIRYRPPRLPRPRPRPLWFPRP
shrunken log2 fold change: -0.494

RRIRTRPPRLPRPRPRPHATPRP
shrunken log2 fold change: -0.0102

RRIRARPPRLPRPRPRPEDKPRP
shrunken log2 fold change: 1.89

RRIRGRPPRLPRPRPRPKEKPRP
shrunken log2 fold change: 0.0377

RRIRNRPPRLPRPRPRPYNLPRP
shrunken log2 fold change: 0.00765

RRIRMRPPRLPRPRPRPTYEPRP
shrunken log2 fold change: -0.16

RRIRHRPPRLPRPRPRPQYTPRP
shrunken log2 fold change: -1.27

RRIRHRPPRLPRPRPRPRHFPRP
shrunken log2 fold change: -0.0239

RRIRFRPPRLPRPRPRPLQCPRP
shrunken log2 fold change: -0.293

RRIRIRPPRLPRPRPRPQKDPRP
shrunken log2 fold change: -0.421

RRIRVRPPRLPRPRPRPCNSPRP
shrunken log2 fold change: -0.116

RRIRHRPPRLPRPRPRPVIFPRP
shrunken log2 fold change: -0.395

RRIRKRPPRLPRPRPRPPLVPRP
shrunken log2 fold change: 0.598

RRIRWRPPRLPRPRPRPKVSPRP
shrunken log2 fold change: 0.198

RRIRERPPRLPRPRPRPIKKPRP
shrunken log2 fold change: 0.00021

RRIRWRPPRLPRPRPRPGFIPRP
shrunken log2 fold change: 0.0297

RRIRCRPPRLPRPRPRPRKVPRP
shrunken log2 fold change: 0.196

RRIRGRPPRLPRPRPRPWKVPRP
shrunken log2 fold change: -0.00197

RRIRGRPPRLPRPRPRPRWKPRP
shrunken log2 fold change: 0.0802

RRIRYRPPRLPRPRPRPEYDPRP
shrunken log2 fold change: -0.104

RRIRERPPRLPRPRPRPIGQPRP
shrunken log2 fold change: 0.000367

RRIRNRPPRLPRPRPRPTLEPRP
shrunken log2 fold change: 0.041

RRIRARPPRLPRPRPRPGQAPRP
shrunken log2 fold change: -0.0216

RRIRVRPPRLPRPRPRPDLAPRP
shrunken log2 fold change: 3.31

RRIRWRPPRLPRPRPRPTRIPRP
shrunken log2 fold change: 1.97

RRIRCRPPRLPRPRPRPPFQPRP
shrunken log2 fold change: 0.149

RRIRRRPPRLPRPRPRPRWTPRP
shrunken log2 fold change: 0.453

RRIRYRPPRLPRPRPRPGVYPRP
shrunken log2 fold change: -0.0135

RRIRFRPPRLPRPRPRPAERPRP
shrunken log2 fold change: 0.0603

RRIRKRPPRLPRPRPRPAWHPRP
shrunken log2 fold change: 0.378

RRIRYRPPRLPRPRPRPPHNPRP
shrunken log2 fold change: -0.275

RRIRTRPPRLPRPRPRPCPHPRP
shrunken log2 fold change: -0.0429

RRIRMRPPRLPRPRPRPGCQPRP
shrunken log2 fold change: 0.719

RRIRHRPPRLPRPRPRPCAGPRP
shrunken log2 fold change: -0.195

RRIRNRPPRLPRPRPRPVEHPRP
shrunken log2 fold change: -0.123

RRIRARPPRLPRPRPRPLIGPRP
shrunken log2 fold change: 0.107

RRIRRRPPRLPRPRPRPEFYPRP
shrunken log2 fold change: 0.413

RRIRIRPPRLPRPRPRPSLHPRP
shrunken log2 fold change: -0.824

RRIRFRPPRLPRPRPRPQLCPRP
shrunken log2 fold change: -0.0465

RRIRVRPPRLPRPRPRPKITPRP
shrunken log2 fold change: -0.524

RRIRRRPPRLPRPRPRPHLNPRP
shrunken log2 fold change: -0.194

RRIRKRPPRLPRPRPRPYKEPRP
shrunken log2 fold change: -0.417

RRIRPRPPRLPRPRPRPLECPRP
shrunken log2 fold change: -0.000998

RRIRPRPPRLPRPRPRPCVQPRP
shrunken log2 fold change: 0.283

RRIRSRPPRLPRPRPRPVLVPRP
shrunken log2 fold change: 0.242

RRIRKRPPRLPRPRPRPNYQPRP
shrunken log2 fold change: -0.0219

RRIRTRPPRLPRPRPRPDVMPRP
shrunken log2 fold change: -0.00136

RRIRGRPPRLPRPRPRPELKPRP
shrunken log2 fold change: 0.336

RRIRCRPPRLPRPRPRPKTSPRP
shrunken log2 fold change: -0.179

RRIRRRPPRLPRPRPRPMWGPRP
shrunken log2 fold change: 0.0327

RRIRQRPPRLPRPRPRPVSYPRP
shrunken log2 fold change: 0.0822

RRIRARPPRLPRPRPRPKKNPRP
shrunken log2 fold change: 0.441

RRIRMRPPRLPRPRPRPLLNPRP
shrunken log2 fold change: 0.366

RRIRERPPRLPRPRPRPKRMPRP
shrunken log2 fold change: -0.0497

RRIRNRPPRLPRPRPRPSKPPRP
shrunken log2 fold change: -0.399

RRIRPRPPRLPRPRPRPALCPRP
shrunken log2 fold change: 0.371

RRIRCRPPRLPRPRPRPVNMPRP
shrunken log2 fold change: -0.179

RRIRWRPPRLPRPRPRPLIFPRP
shrunken log2 fold change: -0.215

RRIRHRPPRLPRPRPRPLKLPRP
shrunken log2 fold change: 0.0187

RRIRIRPPRLPRPRPRPPLMPRP
shrunken log2 fold change: -0.16

RRIRCRPPRLPRPRPRPFQPPRP
shrunken log2 fold change: -0.281

RRIRIRPPRLPRPRPRPKAVPRP
shrunken log2 fold change: -0.00677

RRIRYRPPRLPRPRPRPMCAPRP
shrunken log2 fold change: -0.208

RRIRVRPPRLPRPRPRPPVRPRP
shrunken log2 fold change: 0.267

RRIRERPPRLPRPRPRPRCRPRP
shrunken log2 fold change: 0.113

RRIRDRPPRLPRPRPRPLMTPRP
shrunken log2 fold change: 0.195

RRIRLRPPRLPRPRPRPQRVPRP
shrunken log2 fold change: 0.0215

RRIRFRPPRLPRPRPRPQGDPRP
shrunken log2 fold change: 0.014

RRIRRRPPRLPRPRPRPKLTPRP
shrunken log2 fold change: 0.0538

RRIRPRPPRLPRPRPRPIKLPRP
shrunken log2 fold change: -0.0641

RRIRFRPPRLPRPRPRPEYEPRP
shrunken log2 fold change: -0.211

RRIRTRPPRLPRPRPRPSMTPRP
shrunken log2 fold change: -0.401

RRIRIRPPRLPRPRPRPQTLPRP
shrunken log2 fold change: -0.129

RRIRHRPPRLPRPRPRPAYQPRP
shrunken log2 fold change: -0.0802

RRIRIRPPRLPRPRPRPIVRPRP
shrunken log2 fold change: -0.339

RRIRQRPPRLPRPRPRPTCGPRP
shrunken log2 fold change: 0.285

RRIRQRPPRLPRPRPRPQTPPRP
shrunken log2 fold change: 0.0705

RRIRMRPPRLPRPRPRPGLWPRP
shrunken log2 fold change: 1.1

RRIRARPPRLPRPRPRPQFSPRP
shrunken log2 fold change: 0.0761

RRIRDRPPRLPRPRPRPYGRPRP
shrunken log2 fold change: -0.0901

RRIRQRPPRLPRPRPRPNDCPRP
shrunken log2 fold change: 0.0531

RRIRNRPPRLPRPRPRPNMCPRP
shrunken log2 fold change: -0.0592

RRIRFRPPRLPRPRPRPCLLPRP
shrunken log2 fold change: -1.19

RRIRVRPPRLPRPRPRPGDNPRP
shrunken log2 fold change: 0.174

RRIRRRPPRLPRPRPRPWIRPRP
shrunken log2 fold change: -0.298

RRIRRRPPRLPRPRPRPFHAPRP
shrunken log2 fold change: 0.201

RRIRRRPPRLPRPRPRPSHRPRP
shrunken log2 fold change: -0.00626

RRIRERPPRLPRPRPRPRKVPRP
shrunken log2 fold change: 0.107

RRIRHRPPRLPRPRPRPEGLPRP
shrunken log2 fold change: 0.00161

RRIRTRPPRLPRPRPRPAGTPRP
shrunken log2 fold change: 0.0902

RRIRQRPPRLPRPRPRPDFQPRP
shrunken log2 fold change: -0.0253

RRIRHRPPRLPRPRPRPNLYPRP
shrunken log2 fold change: -0.012

RRIRDRPPRLPRPRPRPLVTPRP
shrunken log2 fold change: 0.486

RRIRCRPPRLPRPRPRPVVIPRP
shrunken log2 fold change: -0.223

RRIRDRPPRLPRPRPRPPFYPRP
shrunken log2 fold change: -0.213
